# Key:
# HLA-A*26:01 = assay: IEDB peptide-MHC binding, purified MHC/competitive/fluorescence; filed as Kd, often an IC50 or EC50 that approximates it; ≥ and ≤ were set here for values at or beyond the usual limits of such assays
# HLA-A*69:01 [1] = assay: as above
# HLA-B*39:01 [2] = assay: as above
# HLA-B*51:01 = assay: as above
# HLA-A*02:01 [3] = assay: as above
# HLA-B*27:03 = assay: as above
# HLA-B*57:01 [4] = assay: as above
# HLA-B*18:01 [5] = assay: as above
# HLA-B*46:01 [6] = assay: as above
# HLA-A*23:01 = assay: IEDB peptide-MHC binding, purified MHC/direct/fluorescence; filed as Kd, often an IC50 or EC50 that approximates it; ≥ and ≤ were set here for values at or beyond the usual limits of such assays
# HLA-A*11:01 = assay: as above
# HLA-A*02:03 = assay: as above
# HLA-A*02:11 = assay: as above
# HLA-A*02:19 = assay: as above
# HLA-A*02:12 = assay: as above
# HLA-A*29:02 = assay: as above
# HLA-A*24:03 = assay: as above
# HLA-A*02:16 = assay: as above
# HLA-A*03:01 [7] = assay: as above
# HLA-A*31:01 = assay: IEDB peptide-MHC binding, purified MHC/competitive/fluorescence; filed as Kd, often an IC50 or EC50 that approximates it; ≥ and ≤ were set here for values at or beyond the usual limits of such assays
# HLA-A*03:01 [8] = assay: as above
# HLA-B*15:17 = assay: as above
# HLA-A*68:02 = assay: IEDB peptide-MHC binding, purified MHC/direct/fluorescence; filed as Kd, often an IC50 or EC50 that approximates it; ≥ and ≤ were set here for values at or beyond the usual limits of such assays
# HLA-B*15:01 [9] = assay: IEDB peptide-MHC binding, purified MHC/competitive/fluorescence; filed as Kd, often an IC50 or EC50 that approximates it; ≥ and ≤ were set here for values at or beyond the usual limits of such assays
# HLA-B*40:01 = assay: IEDB peptide-MHC binding, purified MHC/direct/fluorescence; filed as Kd, often an IC50 or EC50 that approximates it; ≥ and ≤ were set here for values at or beyond the usual limits of such assays; conditions: source organism: Ebola virus - Gabon (1994-1997)
# HLA-B*07:02 = assay: as above; conditions: source organism: Ebola virus - Gabon (1994-1997)
# HLA-A*69:01 [10] = assay: as above; conditions: source organism: Ebola virus - Gabon (1994-1997)
# HLA-B*39:01 [11] = assay: as above; conditions: source organism: Ebola virus - Gabon (1994-1997)
# HLA-A*02:01 [12] = assay: as above; conditions: source organism: Ebola virus - Gabon (1994-1997)
# HLA-A*01:01 = assay: as above
# HLA-B*58:01 = assay: as above; conditions: source organism: Ebola virus - Gabon (1994-1997)
# HLA-B*57:01 [13] = assay: as above; conditions: source organism: Ebola virus - Gabon (1994-1997)
# HLA-B*44:02 = assay: as above; conditions: source organism: Ebola virus - Gabon (1994-1997)
# HLA-B*18:01 [14] = assay: as above; conditions: source organism: Ebola virus - Gabon (1994-1997)
# HLA-B*27:05 = assay: as above; conditions: source organism: Ebola virus - Gabon (1994-1997)
# HLA-B*46:01 [15] = assay: as above; conditions: source organism: Ebola virus - Gabon (1994-1997)
# HLA-B*15:01 [16] = assay: as above; conditions: source organism: Ebola virus - Gabon (1994-1997)
# [17] = source organism: Encephalitozoon cuniculi GB-M1
# [18] = source organism: Escherichia coli 536
# [19] = source organism: Toxoplasma gondii
# [20] = source organism: Listeria welshimeri serovar 6b str. SLCC5334
# [21] = source organism: Reston ebolavirus
# [22] = source organism: Burkholderia mallei
# [23] = source organism: Zaire ebolavirus
# [24] = source organism: Ebola virus - Gabon (1994-1997)
# [25] = source organism: dengue virus type 1
# [26] = source organism: Vibrio vulnificus YJ016
sequence,measurement,setting,value
EAYCALLCK,Kd,HLA-A*26:01; [17],≥ 20 µM
same,Kd,HLA-A*69:01 [1]; [17],≥ 20 µM
same,Kd,HLA-B*39:01 [2]; [17],≥ 20 µM
same,Kd,HLA-B*51:01; [17],≥ 20 µM
same,Kd,HLA-A*02:01 [3]; [17],≥ 20 µM
same,Kd,HLA-B*27:03; [17],≥ 20 µM
same,Kd,HLA-B*57:01 [4]; [17],≥ 20 µM
same,Kd,HLA-B*18:01 [5]; [17],≥ 20 µM
same,Kd,HLA-B*46:01 [6]; [17],≥ 20 µM
same,Kd,HLA-A*23:01; [17],≥ 20 µM
same,Kd,HLA-A*11:01; [17],≥ 20 µM
same,Kd,HLA-A*02:03; [17],≥ 20 µM
same,Kd,HLA-A*02:11; [17],≥ 20 µM
same,Kd,HLA-A*02:19; [17],≥ 20 µM
same,Kd,HLA-A*02:12; [17],≥ 20 µM
same,Kd,HLA-A*29:02; [17],≥ 20 µM
same,Kd,HLA-A*24:03; [17],≥ 20 µM
same,Kd,HLA-A*02:16; [17],≥ 20 µM
same,Kd,HLA-A*03:01 [7]; [17],≥ 20 µM
AVIVWLLLR,Kd,HLA-A*31:01; [18],0.743 µM
same,Kd,HLA-A*03:01 [8]; [18],≥ 20 µM
GVALRSTYR,Kd,HLA-A*31:01; source organism: Mycobacterium tuberculosis H37Ra,0.0093 µM
same,Kd,HLA-A*03:01 [7]; source organism: Mycobacterium tuberculosis,1.81 µM
VSSHKGWAK,Kd,HLA-B*15:17; [19],≥ 20 µM
same,Kd,HLA-A*26:01; [19],≥ 20 µM
same,Kd,HLA-A*69:01 [1]; [19],≥ 20 µM
same,Kd,HLA-B*39:01 [2]; [19],≥ 20 µM
same,Kd,HLA-B*51:01; [19],≥ 20 µM
same,Kd,HLA-A*02:01 [3]; [19],≥ 20 µM
same,Kd,HLA-B*27:03; [19],≥ 20 µM
same,Kd,HLA-B*57:01 [4]; [19],≥ 20 µM
same,Kd,HLA-B*46:01 [6]; [19],≥ 20 µM
same,Kd,HLA-A*68:02; [19],≥ 20 µM
same,Kd,HLA-A*23:01; [19],≥ 20 µM
same,Kd,HLA-A*11:01; [19],0.002 µM
same,Kd,HLA-A*02:03; [19],≥ 20 µM
same,Kd,HLA-A*02:11; [19],≥ 20 µM
same,Kd,HLA-A*02:19; [19],≥ 20 µM
same,Kd,HLA-A*02:12; [19],≥ 20 µM
same,Kd,HLA-A*24:03; [19],≥ 20 µM
same,Kd,HLA-A*02:16; [19],≥ 20 µM
same,Kd,HLA-A*03:01 [7]; [19],≥ 20 µM
KVGHVGLYR,Kd,HLA-A*31:01; [20],0.0196 µM
same,Kd,HLA-A*03:01 [8]; [20],0.046 µM
VLDCRTAFK,Kd,HLA-A*31:01; source organism: Yellow fever virus,0.772 µM
same,Kd,HLA-A*11:01; source organism: Yellow fever virus 17D,0.109 µM
RTYSLLNRK,Kd,HLA-B*15:17; [21],≥ 20 µM
same,Kd,HLA-A*26:01; [21],≥ 20 µM
same,Kd,HLA-A*69:01 [1]; [21],≥ 20 µM
same,Kd,HLA-B*39:01 [2]; [21],≥ 20 µM
same,Kd,HLA-B*51:01; [21],≥ 20 µM
same,Kd,HLA-A*02:01 [3]; [21],≥ 20 µM
same,Kd,HLA-B*27:03; [21],≥ 20 µM
same,Kd,HLA-B*57:01 [4]; [21],≥ 20 µM
same,Kd,HLA-A*31:01; [21],0.0155 µM
same,Kd,HLA-B*18:01 [5]; [21],≥ 20 µM
same,Kd,HLA-B*46:01 [6]; [21],≥ 20 µM
same,Kd,HLA-B*15:01 [9]; [21],≥ 20 µM
same,Kd,HLA-A*68:02; [21],≥ 20 µM
same,Kd,HLA-A*23:01; [21],≥ 20 µM
same,Kd,HLA-A*02:03; [21],≥ 20 µM
same,Kd,HLA-A*02:11; [21],≥ 20 µM
same,Kd,HLA-A*02:19; [21],≥ 20 µM
same,Kd,HLA-A*02:12; [21],≥ 20 µM
same,Kd,HLA-A*29:02; [21],≥ 20 µM
same,Kd,HLA-A*24:03; [21],≥ 20 µM
same,Kd,HLA-A*02:16; [21],≥ 20 µM
same,Kd,HLA-A*03:01 [7]; source organism: Reston ebolavirus - Reston,0.144 µM
TGHPWITFK,Kd,HLA-A*31:01; source organism: Cupriavidus metallidurans CH34,0.0482 µM
same,Kd,HLA-A*11:01; [22],0.116 µM
same,Kd,HLA-A*03:01 [7]; [22],0.945 µM
AKATGRYNL,Kd,HLA-B*15:17; [23],≥ 20 µM
same,Kd,HLA-A*26:01; [23],≥ 20 µM
same,Kd,HLA-B*51:01; [23],≥ 20 µM
same,Kd,HLA-B*27:03; [23],≥ 20 µM
same,Kd,HLA-A*68:02; [23],≥ 20 µM
same,Kd,HLA-B*40:01,≥ 20 µM
same,Kd,HLA-A*23:01; [23],≥ 20 µM
same,Kd,HLA-B*07:02,≥ 20 µM
same,Kd,HLA-A*11:01; [24],≥ 20 µM
same,Kd,HLA-A*69:01 [10],≥ 20 µM
same,Kd,HLA-B*39:01 [11],0.78 µM
same,Kd,HLA-A*02:12; [23],≥ 20 µM
same,Kd,HLA-A*02:01 [12],≥ 20 µM
same,Kd,HLA-A*29:02; [24],≥ 20 µM
same,Kd,HLA-A*01:01; [24],≥ 20 µM
same,Kd,HLA-B*58:01,≥ 20 µM
same,Kd,HLA-B*57:01 [13],≥ 20 µM
same,Kd,HLA-B*44:02,≥ 20 µM
same,Kd,HLA-A*24:03; [23],≥ 20 µM
same,Kd,HLA-B*18:01 [14],≥ 20 µM
same,Kd,HLA-B*27:05,≥ 20 µM
same,Kd,HLA-B*46:01 [15],≥ 20 µM
same,Kd,HLA-B*15:01 [16],≥ 20 µM
same,Kd,HLA-A*03:01 [7]; [24],≥ 20 µM
LSDAARLFL,Kd,HLA-A*26:01; [23],≥ 20 µM
same,Kd,HLA-A*69:01 [1]; [23],≥ 20 µM
same,Kd,HLA-B*39:01 [2]; [23],≥ 20 µM
same,Kd,HLA-B*51:01; [23],≥ 20 µM
same,Kd,HLA-A*02:01 [3]; [23],≥ 20 µM
same,Kd,HLA-B*27:03; [23],≥ 20 µM
same,Kd,HLA-B*57:01 [4]; [23],≥ 20 µM
same,Kd,HLA-B*18:01 [5]; [23],≥ 20 µM
same,Kd,HLA-B*46:01 [6]; [23],≥ 20 µM
same,Kd,HLA-B*15:01 [9]; [23],≥ 20 µM
same,Kd,HLA-A*68:02; [23],≥ 20 µM
same,Kd,HLA-A*23:01; [23],≥ 20 µM
same,Kd,HLA-A*02:03; [23],≥ 20 µM
same,Kd,HLA-A*02:11; [23],≥ 20 µM
same,Kd,HLA-A*02:19; [23],≥ 20 µM
same,Kd,HLA-A*02:12; [23],≥ 20 µM
same,Kd,HLA-A*29:02; [23],≥ 20 µM
same,Kd,HLA-A*01:01; [21],0.303 µM
same,Kd,HLA-A*24:03; [23],≥ 20 µM
same,Kd,HLA-A*02:16; [23],≥ 20 µM
same,Kd,HLA-A*03:01 [7]; [23],≥ 20 µM
SSADLSLEK,Kd,HLA-A*31:01; [25],≥ 20 µM
same,Kd,HLA-A*11:01; [25],0.0027 µM
TSCAPMMQK,Kd,HLA-A*26:01; [26],≥ 20 µM
same,Kd,HLA-A*69:01 [1]; [26],≥ 20 µM
same,Kd,HLA-B*39:01 [2]; [26],≥ 20 µM
same,Kd,HLA-B*51:01; [26],≥ 20 µM
same,Kd,HLA-A*02:01 [3]; [26],≥ 20 µM
same,Kd,HLA-B*27:03; [26],≥ 20 µM
same,Kd,HLA-B*57:01 [4]; [26],≥ 20 µM
same,Kd,HLA-B*18:01 [5]; [26],≥ 20 µM
same,Kd,HLA-B*46:01 [6]; [26],≥ 20 µM
same,Kd,HLA-A*68:02; [26],≥ 20 µM
same,Kd,HLA-A*23:01; [26],≥ 20 µM
same,Kd,HLA-A*11:01; [26],0.006 µM
same,Kd,HLA-A*02:03; [26],≥ 20 µM
same,Kd,HLA-A*02:11; [26],≥ 20 µM
same,Kd,HLA-A*02:19; [26],≥ 20 µM
same,Kd,HLA-A*02:12; [26],≥ 20 µM
same,Kd,HLA-A*24:03; [26],≥ 20 µM
same,Kd,HLA-A*02:16; [26],≥ 20 µM

# Reference: the Immune Epitope Database (IEDB)
